Assay results taken from patent US20150374794A1 (Novo Nordisk, published 2015).
Numbered stars: 1 amine (or outer) side, 2 acyl side, 3 side chain; on linkers, the order of the positions; unused ones are H or OH. Square brackets hold non-standard residues; d marks the D form. Side chains are listed from the residue outwards. Ends that are not written are not given here. * marks the point of attachment. C18 diacid = O=C(O)CCCCCCCCCCCCCCCCC(=O)*; γGlu = O=C(O)[C@H](CCC(=O)[*:2])N[*:1]; Ac4c = NC1(C(=O)O)CCC1; AEEA = NCCOCCOCC(=O)O; Aib = CC(C)(N)C(=O)O

Key:
human glucagon receptor [1] = target: T1, human glucagon receptor (human, UniProt P47871 26-477); assay: cell-based or functional assay
T1 sequence (P47871 26-477): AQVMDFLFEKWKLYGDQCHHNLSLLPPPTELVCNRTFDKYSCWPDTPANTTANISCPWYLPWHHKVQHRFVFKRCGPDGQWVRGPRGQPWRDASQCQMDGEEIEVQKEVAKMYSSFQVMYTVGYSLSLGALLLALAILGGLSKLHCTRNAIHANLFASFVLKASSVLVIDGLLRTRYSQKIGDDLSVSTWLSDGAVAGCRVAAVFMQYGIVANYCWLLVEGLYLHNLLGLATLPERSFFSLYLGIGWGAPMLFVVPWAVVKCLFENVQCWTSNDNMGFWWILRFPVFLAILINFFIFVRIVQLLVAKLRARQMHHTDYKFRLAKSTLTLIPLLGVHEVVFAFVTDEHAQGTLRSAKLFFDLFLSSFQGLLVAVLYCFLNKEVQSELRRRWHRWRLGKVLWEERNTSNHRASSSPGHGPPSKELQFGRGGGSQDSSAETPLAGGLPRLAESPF

human GLP-1 receptor [2] = target: T2, human GLP-1 receptor (human, UniProt P43220 24-463); assay: cell-based or functional assay
human glucagon receptor [3] = target: T1, human glucagon receptor; assay: displacement of 125I-glucagon, membranes with human glucagon receptor, SPA
Method: (§1) The receptor binding of each compound to the human glucagon receptor was measured in a displacement binding assay. […] Each derivative was added in a series of concentrations to isolated membranes containing the human glucagon receptor and displacement of the labelled ligand is monitored. The receptor binding was reported as the concentration at which half of the labelled ligand is displaced from the receptor, the IC₅₀ value.

human GLP-1 receptor [4] = target: T2, human GLP-1 receptor; assay: displacement of 125I-GLP-1(7-36)NH2, membranes with human GLP-1R, SPA
Method: as §1, with “human GLP-1” for “human glucagon”, “ligand was” for “ligand is”

| Binder | EC50 GlucR, CRE luciferase reporter gene assay in BHK cells (human glucagon receptor [1]) [pM] | EC50 GLP-1R, CRE luciferase reporter gene assay in BHK cells (human GLP-1 receptor [2]) [pM] | IC50 (human glucagon receptor [3]) [pM] | IC50 (human GLP-1 receptor [4]) [pM] |
| --- | --- | --- | --- | --- |
| H[Aib]QGTFTSDLSKYLESKAAREFVQWLLK([γGlu-γGlu-AEEA-AEEA-γGlu-C18 diacid])T-NH2 (N-terminus assumed; SMILES CC(C)C[C@H](NC(=O)[C@H](Cc1ccc(O)cc1)NC(=O)[C@H](CCCCN)NC(=O)[C@H](CO)NC(=O)[C@H](CC(C)C)NC(=O)[C@H](CC(=O)O)NC(=O)[C@H](CO)NC(=O)[C@@H](NC(=O)[C@H](Cc1ccccc1)NC(=O)[C@@H](NC(=O)CNC(=O)[C@H](CCC(N)=O)NC(=O)C(C)(C)NC(=O)[C@@H](N)Cc1c[nH]cn1)[C@@H](C)O)[C@@H](C)O)C(=O)N[C@@H](CCC(=O)O)C(=O)N[C@@H](CO)C(=O)N[C@@H](CCCCN)C(=O)N[C@@H](C)C(=O)N[C@@H](C)C(=O)N[C@@H](CCCNC(=N)N)C(=O)N[C@@H](CCC(=O)O)C(=O)N[C@@H](Cc1ccccc1)C(=O)N[C@H](C(=O)N[C@@H](CCC(N)=O)C(=O)N[C@@H](Cc1c[nH]c2ccccc12)C(=O)N[C@@H](CC(C)C)C(=O)N[C@@H](CC(C)C)C(=O)N[C@@H](CCCCNC(=O)CC[C@H](NC(=O)CC[C@H](NC(=O)COCCOCCNC(=O)COCCOCCNC(=O)CC[C@H](NC(=O)CCCCCCCCCCCCCCCCC(=O)O)C(=O)O)C(=O)O)C(=O)O)C(=O)N[C@H](C(N)=O)[C@@H](C)O)C(C)C) | 506 | 11.9 | 61000 | 200 |
| H[Ac4c]QGTFTSDLSRYLDLRRARDFVQWLLK([γGlu-γGlu-AEEA-AEEA-γGlu-γGlu-C18 diacid])T-NH2 (N-terminus assumed; SMILES CC(C)C[C@H](NC(=O)[C@H](CC(=O)O)NC(=O)[C@H](CC(C)C)NC(=O)[C@H](Cc1ccc(O)cc1)NC(=O)[C@H](CCCNC(=N)N)NC(=O)[C@H](CO)NC(=O)[C@H](CC(C)C)NC(=O)[C@H](CC(=O)O)NC(=O)[C@H](CO)NC(=O)[C@@H](NC(=O)[C@H](Cc1ccccc1)NC(=O)[C@@H](NC(=O)CNC(=O)[C@H](CCC(N)=O)NC(=O)C1(NC(=O)[C@@H](N)Cc2c[nH]cn2)CCC1)[C@@H](C)O)[C@@H](C)O)C(=O)N[C@@H](CCCNC(=N)N)C(=O)N[C@@H](CCCNC(=N)N)C(=O)N[C@@H](C)C(=O)N[C@@H](CCCNC(=N)N)C(=O)N[C@@H](CC(=O)O)C(=O)N[C@@H](Cc1ccccc1)C(=O)N[C@H](C(=O)N[C@@H](CCC(N)=O)C(=O)N[C@@H](Cc1c[nH]c2ccccc12)C(=O)N[C@@H](CC(C)C)C(=O)N[C@@H](CC(C)C)C(=O)N[C@@H](CCCCNC(=O)CC[C@H](NC(=O)CC[C@H](NC(=O)COCCOCCNC(=O)COCCOCCNC(=O)CC[C@H](NC(=O)CC[C@H](NC(=O)CCCCCCCCCCCCCCCCC(=O)O)C(=O)O)C(=O)O)C(=O)O)C(=O)O)C(=O)N[C@H](C(N)=O)[C@@H](C)O)C(C)C) | 16 | 21 | 8500 | 1100 |
| H[Aib]QGTFTSDLSKYLDSRRAREFVQWLLK([γGlu-γGlu-AEEA-AEEA-γGlu-C18 diacid])T-NH2 (N-terminus assumed; SMILES CC(C)C[C@H](NC(=O)[C@H](Cc1ccc(O)cc1)NC(=O)[C@H](CCCCN)NC(=O)[C@H](CO)NC(=O)[C@H](CC(C)C)NC(=O)[C@H](CC(=O)O)NC(=O)[C@H](CO)NC(=O)[C@@H](NC(=O)[C@H](Cc1ccccc1)NC(=O)[C@@H](NC(=O)CNC(=O)[C@H](CCC(N)=O)NC(=O)C(C)(C)NC(=O)[C@@H](N)Cc1c[nH]cn1)[C@@H](C)O)[C@@H](C)O)C(=O)N[C@@H](CC(=O)O)C(=O)N[C@@H](CO)C(=O)N[C@@H](CCCNC(=N)N)C(=O)N[C@@H](CCCNC(=N)N)C(=O)N[C@@H](C)C(=O)N[C@@H](CCCNC(=N)N)C(=O)N[C@@H](CCC(=O)O)C(=O)N[C@@H](Cc1ccccc1)C(=O)N[C@H](C(=O)N[C@@H](CCC(N)=O)C(=O)N[C@@H](Cc1c[nH]c2ccccc12)C(=O)N[C@@H](CC(C)C)C(=O)N[C@@H](CC(C)C)C(=O)N[C@@H](CCCCNC(=O)CC[C@H](NC(=O)CC[C@H](NC(=O)COCCOCCNC(=O)COCCOCCNC(=O)CC[C@H](NC(=O)CCCCCCCCCCCCCCCCC(=O)O)C(=O)O)C(=O)O)C(=O)O)C(=O)N[C@H](C(N)=O)[C@@H](C)O)C(C)C) | 6.3 | 5.3 | 2100 | 300 |
| H[Ac4c]QGTFTSDLSKYLDLRRARDFVQWLLK([γGlu-γGlu-AEEA-AEEA-γGlu-γGlu-C18 diacid])T-NH2 (N-terminus assumed; SMILES CC(C)C[C@H](NC(=O)[C@H](CC(=O)O)NC(=O)[C@H](CC(C)C)NC(=O)[C@H](Cc1ccc(O)cc1)NC(=O)[C@H](CCCCN)NC(=O)[C@H](CO)NC(=O)[C@H](CC(C)C)NC(=O)[C@H](CC(=O)O)NC(=O)[C@H](CO)NC(=O)[C@@H](NC(=O)[C@H](Cc1ccccc1)NC(=O)[C@@H](NC(=O)CNC(=O)[C@H](CCC(N)=O)NC(=O)C1(NC(=O)[C@@H](N)Cc2c[nH]cn2)CCC1)[C@@H](C)O)[C@@H](C)O)C(=O)N[C@@H](CCCNC(=N)N)C(=O)N[C@@H](CCCNC(=N)N)C(=O)N[C@@H](C)C(=O)N[C@@H](CCCNC(=N)N)C(=O)N[C@@H](CC(=O)O)C(=O)N[C@@H](Cc1ccccc1)C(=O)N[C@H](C(=O)N[C@@H](CCC(N)=O)C(=O)N[C@@H](Cc1c[nH]c2ccccc12)C(=O)N[C@@H](CC(C)C)C(=O)N[C@@H](CC(C)C)C(=O)N[C@@H](CCCCNC(=O)CC[C@H](NC(=O)CC[C@H](NC(=O)COCCOCCNC(=O)COCCOCCNC(=O)CC[C@H](NC(=O)CC[C@H](NC(=O)CCCCCCCCCCCCCCCCC(=O)O)C(=O)O)C(=O)O)C(=O)O)C(=O)O)C(=O)N[C@H](C(N)=O)[C@@H](C)O)C(C)C) | 6 | 18 | 4500 | 400 |
| H[Ac4c]QGTFTSDLSRYLESRRAREFVQWLLK([γGlu-γGlu-AEEA-AEEA-γGlu-γGlu-C18 diacid])T-NH2 (N-terminus assumed; SMILES CC(C)C[C@H](NC(=O)[C@H](Cc1ccc(O)cc1)NC(=O)[C@H](CCCNC(=N)N)NC(=O)[C@H](CO)NC(=O)[C@H](CC(C)C)NC(=O)[C@H](CC(=O)O)NC(=O)[C@H](CO)NC(=O)[C@@H](NC(=O)[C@H](Cc1ccccc1)NC(=O)[C@@H](NC(=O)CNC(=O)[C@H](CCC(N)=O)NC(=O)C1(NC(=O)[C@@H](N)Cc2c[nH]cn2)CCC1)[C@@H](C)O)[C@@H](C)O)C(=O)N[C@@H](CCC(=O)O)C(=O)N[C@@H](CO)C(=O)N[C@@H](CCCNC(=N)N)C(=O)N[C@@H](CCCNC(=N)N)C(=O)N[C@@H](C)C(=O)N[C@@H](CCCNC(=N)N)C(=O)N[C@@H](CCC(=O)O)C(=O)N[C@@H](Cc1ccccc1)C(=O)N[C@H](C(=O)N[C@@H](CCC(N)=O)C(=O)N[C@@H](Cc1c[nH]c2ccccc12)C(=O)N[C@@H](CC(C)C)C(=O)N[C@@H](CC(C)C)C(=O)N[C@@H](CCCCNC(=O)CC[C@H](NC(=O)CC[C@H](NC(=O)COCCOCCNC(=O)COCCOCCNC(=O)CC[C@H](NC(=O)CC[C@H](NC(=O)CCCCCCCCCCCCCCCCC(=O)O)C(=O)O)C(=O)O)C(=O)O)C(=O)O)C(=O)N[C@H](C(N)=O)[C@@H](C)O)C(C)C) | 17 | 4 | 1400 | 200 |
| H[Aib]QGTFTSDLSKYLDARRAREFVQWLLK([γGlu-γGlu-AEEA-AEEA-γGlu-C18 diacid])T-NH2 (N-terminus assumed; SMILES CC(C)C[C@H](NC(=O)[C@H](Cc1ccc(O)cc1)NC(=O)[C@H](CCCCN)NC(=O)[C@H](CO)NC(=O)[C@H](CC(C)C)NC(=O)[C@H](CC(=O)O)NC(=O)[C@H](CO)NC(=O)[C@@H](NC(=O)[C@H](Cc1ccccc1)NC(=O)[C@@H](NC(=O)CNC(=O)[C@H](CCC(N)=O)NC(=O)C(C)(C)NC(=O)[C@@H](N)Cc1c[nH]cn1)[C@@H](C)O)[C@@H](C)O)C(=O)N[C@@H](CC(=O)O)C(=O)N[C@@H](C)C(=O)N[C@@H](CCCNC(=N)N)C(=O)N[C@@H](CCCNC(=N)N)C(=O)N[C@@H](C)C(=O)N[C@@H](CCCNC(=N)N)C(=O)N[C@@H](CCC(=O)O)C(=O)N[C@@H](Cc1ccccc1)C(=O)N[C@H](C(=O)N[C@@H](CCC(N)=O)C(=O)N[C@@H](Cc1c[nH]c2ccccc12)C(=O)N[C@@H](CC(C)C)C(=O)N[C@@H](CC(C)C)C(=O)N[C@@H](CCCCNC(=O)CC[C@H](NC(=O)CC[C@H](NC(=O)COCCOCCNC(=O)COCCOCCNC(=O)CC[C@H](NC(=O)CCCCCCCCCCCCCCCCC(=O)O)C(=O)O)C(=O)O)C(=O)O)C(=O)N[C@H](C(N)=O)[C@@H](C)O)C(C)C) | 2 | 5 | 5600 | 300 |
